Test results taken from PMC2917178 (Biochemistry, 2010).

Biological target: H3-H4 (Xenopus laevis, UniProt P84233 1-136; P62799 1-103)
Test: SEC

B1: co-purified Rtt109-Vps75 complex (complex)
chain 1: MSLNDFLSSVLPVSEQFEYLSLQSIPLETHAVVTPNKDDKRVPKSTIKTQHFFSLFHQGKVFFSLEVYVYVTLWDEADAERLIFVSKADTNGYCNTRVSVRDITKIILEFILSIDPNYYLQKVKPAIRSYKKISPELISAASTPARTLRILARRLKQSGSTVLKEIESPRFQQDLYLSFTCPREILTKICLFTRPASQYLFPDSSKNSKKHILNGEELMKWWGFILDRLLIECFQNDTQAKLRIPGEDPARVRSYLRGMKYPLWQVGDIFTSKENSLAVYNIPLFPDDPKARFIHQLAEEDRLLKVSLSSFWIELQERQEFKLSVTSSVMGISGYSLATPSLFPSSADVIVPKSRKQFRAIKKYITGEEYDTEEGAIEAFTNIRDFLLLRMATNLQSLTGKREHRERNQPVPASNINTLAITMLKPRKKAKALPKT
chain 2: MMSDQENENEHAKAFLGLAKCEEEVDAIEREVELYRLNKMKPVYEKRDAYIDEIAEFWKIVLSQHVSFANYIRASDFKYIDTIDKIKVEWLALESEMYDTRDFSITFHFHGIEGDFKEQQVTKVFQIKKGKDDQEDGILTSEPVPIEWPQSYDSINPDLIKDKRSPEGKKKYRQGMKTIFGWFRWTGLKPGKEFPHGDSLASLFSEEIYPFCVKYYAEAQRDLEDEEGESGLSADGDSEDDDGSLGEVDLPLSDEEPSSKKRKV
modifications: acetyl-lysine at K290 (wildtype Rtt109 used is fully acetylated at K290, unpublished data)
- binding result: binds
